System: MS2 coat protein
Test: apparent KD of MS2 coat protein; higher = weaker reporter binding
Conditions: Eterna round: R107
Summary of the method: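 For every design, apparent KD is the median of normalised binding-curve fits from its clusters. The RNA switches were transcribed on-chip from Illumina sequencing clusters and titrated with SNAP-549-labelled MS2 coat protein (twofold steps, 0.7 or 1.5 nM to 3 µM; 0.8–1.5 h to 10–20 min per step). Titrations used 100 mM Tris-HCl pH 7.5, 80 mM KCl, 4 mM MgCl2, without or with constant ligand.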

[1] = input ligand: theophylline 20 uM
[2] = input ligand: tryptophan 2.4 mM
[3] = input ligand: theophylline 2 mM

Sequence	apparent KD of MS2 coat protein (input ligand: arginine 13.2 mM) [nM]	apparent KD of MS2 coat protein [1] [nM]	apparent KD of MS2 coat protein [2] [nM]	apparent KD of MS2 coat protein (input ligand: none) [nM]	apparent KD of MS2 coat protein [3] [nM]
AGACAUGAGGAUCACCCAUGUAGCACGGAUACCAGAUCCAGAUGUAUCCCUUGGCAGCUGUGGUACAGCGUUGCAACGCUCCUAG [Exclusion - Theophylline A (Freestyle 17)]	17.6	28.5	18.1	–	–
AUCGGGCCUUUAGAACCGCCGUUCCCACCUCGAGGACCGGUACGGCCGCCACUCGGGUGACAUGAGGAUCACCCAUGUGGACGAA [Gexebidive]	31	432	284	181	737
AGCGACAUGCGUGAUACCAGCUACAUGAGGAUCACCCAUGUAAGUAGGAAACUACUGUGUAGCCCUUGGCAGCACAGUGCAUGUC [Exclusion - Theophylline B (Freestyle 23)]	10.3	14	10.8	–	–
CUUGGCUGUGCGGCCGCCACUGGCUCAUCCUGCAUUACAUGAGGAUCACCCAUGUUGCGGCCUCCCAGGACCGGGCAUAGCCUGA [Usesties]	127	702	–	–	684
GAUGAACUAUUCGAUACCAGACUACAUGAGGAUCACCCAUGUGUGUCAAUUUCUCAGUCAGUCCCUUGGCAGCGAAUAGUUUAUC [#26 Exclusion-TheophyllineB]	53	51.7	26.3	–	–
AAUAAUAUCCUCAUGUGAGUCGUACCAUAACGAGGACCGGUACGGCCGCCACUCGAACAUGAGGAUCACCCAUGUAGGUAUGAUA [M'-T'-T-MS2-T'' - Design 7]	50.6	120	–	–	345
AAAAUCCUACCUGAGGAUCACCCUGGUGAAGGAGCGCCCGAAAGGGCAGGUAGGUCGCACCUGAGGAUCACCCAGGUAACCUAAA [ArgEX 13 #DoubleMS2 #OpenEnded #AlternativeMS2]	31.7	40.7	47	49.2	44.1
UACCGAGAGGGAAGGAGCGCGAUAACAUAACAUGAGGAUCACCCAUGUAAGAAAUUAAUCAUGCAGGUAGGUCGCCCAAGCGGAU [Same State Arginine B GF 2]	16.7	21.5	14.7	15.4	15.8
GGUUACUCUACGGCCGCCACUGUAAAGUAAAGAUACCUGUACAUGACAUGAGGAUCACCCAUGUACAGGACCGGGUAGUGUAACC [Tryptophan B 16]	133	636	–	–	804
AUAACGAGUGGUGGAAUACAUGGGUGAUAACGAGGACCGGUACGGCCGCCACUCGAUAACAUGAGGAUCACCCAUGUAAUAAUAA [|T'-M'-Trp-Ms2|_Design18]	57.3	160	–	–	139
GGGCGCUAUCCCGCGAGGGAUAGCGUUCAACGAGGACCGGUACGGCCGCCACUCGAACGAGUGGGUACAUGAGGAUCACCCAUGU [Haa]	19.9	46.4	35.4	28.5	37.1
UAUCGAGGUACAUGAGGAUCACCCAUGUAUCGAGGACCGGUACGGCCGCCACUCGAUAAUGGCGGAUCGUUAGUCCUCUUCGAUA [Tryp A Ex 4b]	–	14	–	–	12.7
AAACGCCACGGAAGGAGCGACAUGAGGAUCACCCAUGUAGACGUGGCGGAUGCACCCUCCUGUCAGGUAGGUCGCCGUGCGCCAA [Engebite]	10.9	15.5	11.2	11	12.2
AAAGGUCGGACGGCCGCCACUGGCUAGGUGGGUUCCGGGAUUACAUGAGGAUCACCCAUGUAUACCAGGACCGGGUUCGCCUCGU [Lageonor]	9.51	12.2	17.8	11.9	8.28
UUAAUUAUAUAUUAUAUAAUAUAUACAGAAGGAGCGUGAUAAAACACAGGUAGGUCGCUGAAGGGAACAUGAGGAUCACCCAUGU [AstrosSSArgA#1]	26.9	38.5	30	25.6	48.6
AAACGCUAUGCGGCCGCCACUAAGGUUGGCGUCUAUGUCGUUUAAGACAUGAGGAUCACCCAUGUUAGGACCGGGCAUGUCCGCG [theeternabot_exclusion_MS2_Trp_B_25]	19.1	22.9	–	–	22.4
AUCGGCCAGGGAAGGAGCGUGAAGACAUGAGGAUCACCCAUGUAGAGGCGCCGAAGGCGUUCGCAGGUAGGUCGCCCUGGCUGAU [#1 Same State - Arginine B Attempt #27 (HarryS)]	14.7	23.8	15.8	14.7	17.7
AAUUUAUGGUUCUUGAUGUAGUAUCUAUUUCGAGGACCGGUACGGCCGCCACUCGUAAAUUACAUGAGGAUCACCCAUGUUAGCU [JR_ExcTryptoA_Sub011]	18.8	27	–	–	28.8
AUUAAGAAUAUGUAGACGGCGGAGAAGAGACGAGGACCGGUACGGCCGCCACUCGUGUUAGUUAACAUGAGGAUCACCCAUGUUA [#08 Tryptophan A Same State]	11.9	14.1	11.8	12.1	12.6
